The results in this text go back to US20260159601A1.

In this assay the target is human CD20 (human) (UniProt P11836). Description: flow cytometry on a human B-cell lymphoma cell line, 30 min at 4 C, detection with FITC-labeled F(ab)'2 goat anti-human Fc-gamma-specific antibody, median fluorescence intensity.
Chain of human CD20 (human) (P11836 whole entry): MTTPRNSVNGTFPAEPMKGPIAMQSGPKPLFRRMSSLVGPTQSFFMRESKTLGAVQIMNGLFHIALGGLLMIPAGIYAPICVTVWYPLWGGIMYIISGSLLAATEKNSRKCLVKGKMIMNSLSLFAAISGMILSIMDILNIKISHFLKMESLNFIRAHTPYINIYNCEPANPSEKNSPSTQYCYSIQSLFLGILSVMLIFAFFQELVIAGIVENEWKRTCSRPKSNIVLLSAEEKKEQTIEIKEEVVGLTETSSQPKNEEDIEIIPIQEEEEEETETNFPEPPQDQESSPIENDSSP

Turning to rituximab (antibody), the EC50 (read off the curve) was 5 nM.
